Reference: the supplement of paper PMC10126150
± gives the standard deviation of the averaged measurements.

Test system: ATP
Assay: switch fluorescence ratio, 500 uM ATP over buffer (Cy3 cluster intensity, sum of 5 cycles each) (fold (ratio)); higher = stronger signal-on switching upon ATP binding; sequences stand for … in TCGTCGGCAGCGTCAGATGTGTATAAGAGACAGTTTTTTTTTTTTTTTTTTTTTTTTT…TC
Details: aptamer strand: ATP DNA aptamer (quencher-CACCTGGGGGAGTATTGCGGAGGAAGG + anchor), 100 nM annealed; ATP concentration: 500 uM
Summary of the method: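 The fluorescence ratio divides summed target-cycle Cy3 intensity by summed buffer-cycle Cy3 intensity for each cluster and is averaged per switch-domain sequence. Cy3-labelled switching-strand clusters on a modified Illumina MiSeq flow-cell were annealed to 100 nM quencher-labelled ATP aptamer, then imaged in selection buffer and again after 15 min with 500 uM ATP at 22 °C. Five such cycles were run, with NaOH stripping and re-annealing between them, and clusters outside 100-1000 RFU were excluded.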
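Further: ATP exposure 15 min at 22 °C before imaging.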

Row | Sequence | switch fluorescence ratio
1 | CTGAGTGTGG | 0.989 ± 0.028
2 | TTTCCTGGGG | 1.04 ± 0.039
3 | GTGGTAGGCG | 0.975 ± 0.014
4 | CCGCAGGGTT | 1.51 ± 0.58
5 | CAACCGTGAA | 1.91 ± 0.92
6 | AGGCGTAAAA | 0.985 ± 0.019
7 | CGTGCCCAGC | 1.01 ± 0.025
8 | CTGTGCAGCG | 1.01 ± 0.019
9 | TAGTATGGTA | 1.01 ± 0.011
10 | TTTGTTTTTC | 1.02 ± 0.013
11 | AGGGTTGGTG | 1.04 ± 0.077
12 | GTGGTAAAAG | 0.984 ± 0.013
13 | GCGATTAGAG | 1 ± 0.02
14 | TAGCTTGGGG | 0.9985 ± 0.0046
15 | AGGGCTCGGG | 1.012 ± 0.0075
16 | GTGTTTCCTG | 0.994 ± 0.028
17 | TTTTAACCCC | 1.26 ± 0.19
18 | AGAGGCTTAA | 1.01 ± 0.011
19 | GTTATTAGCT | 0.992 ± 0.013
20 | AATGCTAAGA | 1.01 ± 0.044
21 | AGTTTTTTGT | 0.979 ± 0.042
22 | TTATGTTTAG | 0.976 ± 0.045
23 | GTGAGTGTCA | 1 ± 0.03

Row | Sequence | switch fluorescence ratio
24 | GTTGACGGTG | 0.982 ± 0.039
25 | TTTAAAGAAA | 1.02 ± 0.016
26 | ATTGGTGGAG | 1.007 ± 0.0033
27 | GCCGCGGGGT | 1 ± 0.0017
28 | TTTATAAAAT | 0.987 ± 0.039
29 | CAGTGCCTGT | 1.01 ± 0.034
30 | TGGGTAGTAT | 0.977 ± 0.012
31 | GATTATGCTC | 1.01 ± 0.015
32 | CAGAAACGGT | 1 ± 0.047
33 | CGCGATAGTA | 1.27 ± 0.026
34 | AATAGGCTGG | 1.03 ± 0.013
35 | GGGATTCGCA | 0.99 ± 0.053
36 | CGAGGGTAAC | 0.983 ± 0.029
37 | GTAATAAGGT | 1.02 ± 0.023
38 | TCCATAAGGG | 1.01 ± 0.023
39 | AAGGTCTTTA | 1 ± 0.035
40 | AGCAATGTCT | 1.26 ± 0.065
41 | AAATGGTCT | 1.016 ± 0.01
42 | CATTCGTTGA | 1.05 ± 0.08
43 | CCATAGGGGA | 1.0339 ± 0.00023
44 | TCAATGTTTG | 1.008 ± 0.0069
45 | ATATTTGGTT | 0.985 ± 0.034
46 | GGTTTGGTAG | 0.9873 ± 0.0029

Row | Sequence | switch fluorescence ratio
47 | CGGAAGTGCG | 1.0061 ± 6.8e-05
48 | AAAATGGGGC | 1 ± 0.037
49 | ATCGGGGTTG | 0.958 ± 0.017
50 | GTAGGCAAGA | 1.03 ± 0.071
51 | TGGCTGGGTT | 1 ± 0.054
52 | TGTGTTGTCA | 1.01 ± 0.011
53 | GGTTTGTAAC | 0.978 ± 0.029
54 | GAAAAGGGGG | 0.992 ± 0.053
55 | GGGAAATAAA | 0.988 ± 0.013
56 | AGCGCGAATG | 1.01 ± 0.018
57 | GTAGGGGCCC | 1.02 ± 0.032
58 | GATACGTGTT | 0.998 ± 0.053
59 | GGTCTGGGAG | 1 ± 0.023
60 | TATGTAATTT | 0.9932 ± 0.0092
61 | ATTATATTGC | 1.01 ± 0.026
62 | GGTTTTTGCG | 1.0217 ± 0.0008
63 | AGGGACATGC | 1.0581 ± 0.00016
64 | ATTTAGGCGT | 1 ± 0.039
65 | TTATGGTAGC | 0.995 ± 0.015
66 | GGTTGGCAGG | 1 ± 0.038
67 | TTGTGACGGG | 1 ± 0.023
68 | CTAAAGGAAG | 1.01 ± 0.029
69 | TTCAGTTCGG | 0.9942 ± 0.0016

Row | Sequence | switch fluorescence ratio
70 | TAGCGCTGCC | 0.984 ± 0.012
71 | TTATTAAATA | 0.98 ± 0.016
72 | ATGGGTGTTG | 0.992 ± 0.022
73 | ATGACTAAGA | 1.006 ± 0.0034
74 | TTACTCCGGG | 1.3 ± 0.23
75 | TGGGGATATA | 1.029 ± 0.0093
76 | CGATATAGGA | 0.992 ± 0.011
77 | ATGAGATTTT | 0.988 ± 0.015
78 | TAATTTACAG | 1 ± 0.03
79 | ATAGCCGTGC | 1.017 ± 0.0054
80 | GTAGTAGGGT | 1.01 ± 0.035
81 | TCTTTGTATG | 0.991 ± 0.017
82 | TTTATAAGGT | 0.988 ± 0.012
83 | ACCTTAGTAT | 1.02 ± 0.022
84 | ATTAATTGTT | 0.993 ± 0.012
85 | ATGGTCGAGC | 0.9822 ± 0.0076
86 | GGTTTTTTAG | 0.996 ± 0.021
87 | TACTTCTTTT | 0.958 ± 0.015
88 | GTATAGGGAA | 1.004 ± 0.0071
89 | GGGGAACGGT | 1.03 ± 0.012
90 | AGGGATTATT | 1.02 ± 0.016
91 | CGGGAAGGGC | 1.19 ± 0.32
92 | AGTGGGTATA | 1.01 ± 0.02

Row | Sequence | switch fluorescence ratio
93 | CGTGCTGGAC | 1.091 ± 0.0065
94 | TATTACACGT | 1.021 ± 0.0046
95 | CGGACCGGGG | 0.996 ± 0.041
96 | TACCTGGTTA | 0.999 ± 0.049
97 | TACGGAGGGA | 1.08 ± 0.029
98 | TTTTGAGGAG | 0.9807 ± 0.0038
99 | TAATGGTTTG | 1.08 ± 0.12
100 | GCACTAGGGG | 1.09 ± 0.015
101 | GCAGCTGGTA | 1.05 ± 0.024
102 | GATTGTTTTT | 0.997 ± 0.044
103 | GATATAGGGG | 1 ± 0.034
104 | CAATTTTAGG | 0.987 ± 0.018
105 | AGTTCACTGG | 0.979 ± 0.02
106 | AAATACGGTG | 1.17 ± 0.16
107 | ATGAGAAAAG | 0.991 ± 0.0095
108 | GACCTTGGGA | 0.992 ± 0.039
109 | GGCCGGGACT | 0.987 ± 0.062
110 | ACCGGCGAGC | 1.01 ± 0.016
111 | CTCATAGACA | 1.03 ± 0.08
112 | TGGCAATTTG | 1 ± 0.033
113 | CCGGAGGGGG | 1.05 ± 0.02
114 | TTTTATAAAT | 1.02 ± 0.0071
115 | TGGGTGCATG | 0.9897 ± 0.0049

Row | Sequence | switch fluorescence ratio
116 | TATTTCATTG | 1.02 ± 0.03
117 | AACGGACGGC | 1.48 ± 0.098
118 | TATGTGGGTG | 1.01 ± 0.035
119 | TAATAAATCA | 1 ± 0.036
120 | AGTAGATTGG | 0.995 ± 0.028
121 | GACGGTTCAG | 1.03 ± 0.023
122 | GAGGTATGTG | 0.997 ± 0.023
123 | AGGACAGCGC | 1.024 ± 0.008
124 | GGTTGTGTGT | 1 ± 0.005
125 | ACGGGCTTCT | 1.005 ± 0.0047
126 | GCTGCGGGG | 1.01 ± 0.053
127 | ACCGGAGCGG | 1.61 ± 0.042
128 | GATTGTCCTT | 0.9956 ± 0.0048
129 | CTCTAGTGGC | 1.1 ± 0.074
130 | GATGGTGGGG | 0.977 ± 0.035
131 | GGTCCTAATA | 1 ± 0.026
132 | AACTCACGGG | 1.63 ± 0.083
133 | ATCGGAGGGA | 0.986 ± 0.028
134 | TCAAAAAGTG | 0.989 ± 0.034
135 | AAGAATTGGG | 1.06 ± 0.11
136 | TCATTAATTG | 1.024 ± 0.0078
137 | TTGCCATGTT | 0.978 ± 0.036
138 | CATTACCGAG | 1.049 ± 0.0037

Row | Sequence | switch fluorescence ratio
139 | TAATAGGTTC | 0.972 ± 0.024
140 | TTAATTTATT | 0.987 ± 0.035
141 | GGAAAGTAGG | 1.01 ± 0.046
142 | CGTACCGGTC | 1.04 ± 0.079
143 | GCGTTGAGGA | 1.04 ± 0.08
144 | GCTGTTCCCG | 1.04 ± 0.071
145 | AACAGTTTGT | 1 ± 0.017
146 | TGGTTTTGTG | 0.9862 ± 0.0015
147 | GTATGTCGTT | 0.968 ± 0.034
148 | TTACGGCCTT | 1.06 ± 0.012
149 | TACAGGACTC | 1.09 ± 0.012
150 | CGGCAGGGGG | 1.06 ± 0.1
151 | TGGGTTGGGT | 0.993 ± 0.022
152 | TTTCGTTGTA | 0.973 ± 0.001
153 | CGCCGGGTTG | 0.984 ± 0.033
154 | CGCGGGGGTG | 1.03 ± 0.024
155 | TTAGAATTCC | 1.1 ± 0.091
156 | GGGGAAATTA | 1.02 ± 0.012
157 | CAATGTGTTT | 1.01 ± 0.035
